Target: T1, activated insulin receptor (pYpY1162/1163-IR) of mouse MS-1 endothelial cells, P15208
T1 chain: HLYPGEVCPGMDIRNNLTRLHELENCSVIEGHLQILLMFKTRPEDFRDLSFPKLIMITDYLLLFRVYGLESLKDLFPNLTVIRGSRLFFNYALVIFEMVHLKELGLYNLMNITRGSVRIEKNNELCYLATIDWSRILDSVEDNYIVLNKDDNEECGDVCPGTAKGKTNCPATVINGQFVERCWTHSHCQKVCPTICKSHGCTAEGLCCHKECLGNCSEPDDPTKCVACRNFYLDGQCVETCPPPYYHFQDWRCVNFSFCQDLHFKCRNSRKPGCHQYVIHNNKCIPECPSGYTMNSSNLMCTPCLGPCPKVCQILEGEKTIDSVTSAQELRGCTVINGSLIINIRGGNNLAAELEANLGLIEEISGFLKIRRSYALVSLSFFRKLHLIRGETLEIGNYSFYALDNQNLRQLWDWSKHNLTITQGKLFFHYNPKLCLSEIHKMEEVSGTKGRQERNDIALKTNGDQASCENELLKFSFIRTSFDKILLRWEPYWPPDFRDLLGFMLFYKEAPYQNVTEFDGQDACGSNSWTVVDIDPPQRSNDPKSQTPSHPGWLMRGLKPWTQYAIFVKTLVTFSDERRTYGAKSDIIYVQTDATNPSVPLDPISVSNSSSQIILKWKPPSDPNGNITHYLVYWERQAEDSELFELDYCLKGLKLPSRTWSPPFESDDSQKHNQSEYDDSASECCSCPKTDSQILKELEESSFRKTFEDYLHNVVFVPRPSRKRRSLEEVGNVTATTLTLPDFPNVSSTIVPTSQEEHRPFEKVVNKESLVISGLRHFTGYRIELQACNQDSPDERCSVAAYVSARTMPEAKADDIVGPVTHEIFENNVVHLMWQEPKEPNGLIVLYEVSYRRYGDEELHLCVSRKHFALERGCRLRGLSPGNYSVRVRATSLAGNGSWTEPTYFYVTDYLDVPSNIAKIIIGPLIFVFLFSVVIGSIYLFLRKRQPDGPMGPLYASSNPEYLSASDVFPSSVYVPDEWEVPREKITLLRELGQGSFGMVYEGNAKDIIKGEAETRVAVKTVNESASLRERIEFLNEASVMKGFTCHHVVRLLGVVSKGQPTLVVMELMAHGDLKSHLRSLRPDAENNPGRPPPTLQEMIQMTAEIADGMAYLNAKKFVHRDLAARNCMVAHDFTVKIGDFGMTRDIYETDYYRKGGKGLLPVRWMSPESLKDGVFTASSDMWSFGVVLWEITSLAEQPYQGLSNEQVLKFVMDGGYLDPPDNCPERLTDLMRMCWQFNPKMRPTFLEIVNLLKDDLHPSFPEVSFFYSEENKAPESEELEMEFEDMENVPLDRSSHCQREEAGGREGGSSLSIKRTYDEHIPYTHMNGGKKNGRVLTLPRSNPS

B1: HA-tagged C215S mutant form of full-length PTP1B (protein)
chain: MEMEKEFEQIDKSGSWAAIYQDIRHEASDFPCRVAKLPKNKNRNRYRDVSPFDHSRIKLHQEDNDYINASLIKMEEAQRSYILTQGPLPNTCGHFWEMVWEQKSRGVVMLNRVMEKGSLKCAQYWPQKEEKEMIFEDTNLKLTLISEDIKSYYTVRQLELENLTTQETREILHFHYTTWPDFGVPESPASFLNFLFKVRESGSLSPEHGPVVVHSSAGIGRSGTFCLADTCLLLMDKRKDPSSVDIKKVLLEMRKFRMGLIQTADQLRFSYLAVIEGAKFIMGDSSVQDQWKELSHEDLEPPPEHIPPPPRPPKRILEPHNGKCREFFPNHQWVKEETQEDKDCPIKEEKGSPLNAAPYGIESMSQDTEVRSRVVGGSLRGAQAASPAKGEPSLPEKDEDHALSYWKPFLVNMCVATVLTAGAYLCYRFLFNSNT
  IR pYpY1162/1163 phosphorylation (immunoblot, ratio of phosphorylated InRβ to total InRβ): such eNOS ablation-caused defect of insulin signaling was significantly restored by ectopic expression of PTP1B-C215S
